Data reported in patent publication US20190077836A1 (PANASONIC INTELLECTUAL PROPERTY MANAGEMENT, published 2019).

How the values were obtained:
[1] = molecular target: recombinant nucleoprotein (NP) protein derived from influenza virus H1N1 to which a Flag tag was fus (influenza virus H1N1)
[2] = molecular target: T1, recombinant intranuclear protein (SEQ ID NO: 24) derived from a type-A influenza virus H1N1 (A/Puerto … (type-A influenza virus H1N1 (A/Puerto …, UniProt P03466 1-498))); experiment: phage ELISA on immobilised NP, anti-M13 antibody detection, absorbance at 450 nm
T1 construct: also called NP; NP antigen
T1 sequence (P03466 whole entry): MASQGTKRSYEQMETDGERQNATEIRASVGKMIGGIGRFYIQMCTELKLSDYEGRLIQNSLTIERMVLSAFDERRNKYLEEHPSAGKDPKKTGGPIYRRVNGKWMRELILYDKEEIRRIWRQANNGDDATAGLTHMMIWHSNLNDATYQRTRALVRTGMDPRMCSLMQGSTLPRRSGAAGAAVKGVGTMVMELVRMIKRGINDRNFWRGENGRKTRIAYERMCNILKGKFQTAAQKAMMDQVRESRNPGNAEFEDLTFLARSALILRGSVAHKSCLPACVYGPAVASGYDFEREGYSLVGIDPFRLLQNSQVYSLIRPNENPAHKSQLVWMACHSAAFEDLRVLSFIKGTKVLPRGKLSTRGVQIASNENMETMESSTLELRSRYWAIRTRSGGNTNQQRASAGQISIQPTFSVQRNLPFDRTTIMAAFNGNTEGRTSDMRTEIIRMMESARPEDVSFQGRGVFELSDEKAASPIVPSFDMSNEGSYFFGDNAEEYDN

Chain of recombinant nucleoprotein (NP) protein derived from influenza virus H1N1 to which a Flag tag was fus (influenza virus H1N1) (P03466 whole entry): as above

B1: VHH antibody including the amino acid sequence represented by SEQ ID NO: 8 (VHH)
VHH: QVQLVESGGGLVQTGGPLRLSCAVSDRTDSNYAMGWFRQAPGKEREFVAAISGTGYVTGYADSARNRFTLSRDNGKNAVYLQMNSLEPADTAVYYCAATSDQRYPGPRSSGYDYWGQGTQVTVSS
Kd [1]: 199 pM

B2: monoclonal phage displaying the VHH antibody (DNA SEQ ID NO: 18, amino acid sequence SEQ ID NO: 8) (VHH)
VHH: B1 VHH
binding result [2]: binds
